The values below come from patent CN109957012A.

The target of assay [1] is H7N9病毒的血凝素HA (H7N9 influenza virus). Briefly: ELISA of 293F transfection supernatant (well C, supernatant). Background: In an ELISA, binding on a coated surface is turned into a signal by an enzyme label.
Assay [2] has the same target. Briefly: ELISA of 293F transfection supernatant (well A, supernatant).
For assay [3] the target is unchanged. Nature of the assay: ELISA of 293F transfection supernatant (well B, supernatant).

B1: 抗H7N9全人源单克隆抗体8E17 (antibody, V domains shown)
VH: QVQLVESGGGVVQPGRSLRLSCAASGFIFSNYGMHWVRQAPGRGLEWVAVIWSDGTTTYYADSFKGRFTISSDNSKNTVYLQMNSLRADDSAIYYCARGDLDVVQVAAVTKLWDYWGQGTLVTVSS
VL: QSVLTQPPSASGSLGRSVTISCTGTSSDVGGYNYVSWYQQHPGKVPKLLVYEVTKRPSGVPDRFSGSKSGNTASLTVSGLQAEDEADYYCSSYAVSNNFVFGTGTKLTVTV
As to B1, the absorbance at 450 nm (450) turned out to be 2.96 OD450 in assay [1], 3 OD450 in assay [2] and 3.12 OD450 in assay [3].
